Reference: the supplement of paper PMC10899765

What was measured:
Conditions in all cases: 20 nM; 72 h
[1] = test system: MCF10A; test: 5+ nucleoli phenotype percent effect (relative to siNT 0% and siKIF11 100%); higher = more cells with five or more nucleoli
Experimental: (§1)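 After 72 h, cells were fixed and stained with Hoechst and anti-fibrillarin, and nucleoli per nucleus were counted with CellProfiler. Values are plate-adjusted percent effect for the one-nucleolus and 5+ nucleoli phenotypes, normalised to siNT (0%) and to the positive controls siNOL11 or siKIF11 (100%), as the mean of biological triplicates. Percent viability is the nuclei count relative to siNT.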

[2] = test system: MCF10A; test: percent viability (nuclei count relative to siNT); higher = more viable cells
Experimental: as §1

[3] = test system: MCF10A; test: one-nucleolus phenotype percent effect (relative to siNT 0% and siNOL11 100%); higher = more cells with one nucleolus (ribosome biogenesis inhibition)
Experimental: as §1

Sequence	5+ nucleoli phenotype percent effect [1] [%]	percent viability [2] [%]	one-nucleolus phenotype percent effect [3] [%]
GAGACAGGUUCAUGCUGCUA [hsa-miR-4524b-3p]	-32.4	25.8	37.3
UGGAGAGAAAGGCAGUUCCUGA [hsa-miR-185-5p]	-10.1	21.7	5.33
GGACCCACCCGGCCGGGAAUA [hsa-miR-1180-5p]	38.4	75.2	-33.8
CCUGCUGGUCAGGAGUGGAUACUG [hsa-miR-3692-5p]	6.3	32.9	2.08
CAGCACCCUGUGGCUCCCACAG [hsa-miR-6871-3p]	26.8	50.1	-5.35
UCAGGCAAAGGGAUAUUUACAGA [hsa-miR-4742-5p]	6.44	45.1	-11.1
AAGAGGAAGAAAUGGCUGGUUCUCAG [hsa-miR-3916]	-13.2	14	-5.24
AAGUGCCUCCUUUUAGAGUGUU [hsa-miR-519e-3p]	-1.33	40.9	-10.9
CAGCAGCACACUGUGGUUUGU [hsa-miR-497-5p]	-38.4	15.2	50.2
UACACAAGAAAACCAAGGCUCA [hsa-miR-4801]	20.3	82	-13.4
ACACACUUACCCGUAGAGAUUCUA [hsa-miR-216b-3p]	35.7	59	-17.3
UAAUACUGCCGGGUAAUGAUGGA [hsa-miR-200c-3p]	62.3	104	-17
ACCAGGAGGCUGAGGCCCCU [hsa-miR-665]	-29.1	30.2	40.7
UCCUGCGCGUCCCAGAUGCCC [hsa-miR-1539]	-2.94	60.9	15.6
UCCACUCUCCUGGCCCCCAG [hsa-miR-6777-3p]	14.3	51	-16.2
AUCGGGAAUGUCGUGUCCGCCC [hsa-miR-425-3p]	-1.09	109	-1.79
AUCUGCCAGCUUCCACAGUGG [hsa-miR-4727-5p]	-25.7	42.4	17.9
UAAGGAGGGGGAUGAGGGG [hsa-miR-6891-5p]	-18.8	51.8	-7.18
GCAGGAACUUGUGAGUCUCCU [hsa-miR-873-5p]	31.2	122	-17.4
CUCGAGUUGGAAGAGGCG [hsa-miR-4444]	-29.6	109	19.6

Sequence	5+ nucleoli phenotype percent effect [1] [%]	percent viability [2] [%]	one-nucleolus phenotype percent effect [3] [%]
ACUGGACUUGGAGUCAGGA [hsa-miR-378e]	-3.63	26.4	11.5
CAUCUUCCAGUACAGUGUUGGA [hsa-miR-141-5p]	-4.79	64.8	-9.13
UCAGGGAGUCAGGGGAGGGC [hsa-miR-4270]	-37.6	9.71	36.8
AGGCUGGGCUGGGACGGA [hsa-miR-4505]	21.9	12.3	32.2
UCAGGCCUCUUUCUACCUU [hsa-miR-4650-5p]	12.7	19.7	-4.86
AACAGGUGACUGGUUAGACAA [hsa-miR-552]	36.6	123	-33.6
UCUGAGGUGGAACAGCAGC [hsa-miR-7162-3p]	-23	27.2	19.5
UAAAUAGAGUAGGCAAAGGACA [hsa-miR-3121-3p]	15.6	49.3	-18
UCUUGUGUUCUCUAGAUCAGU [hsa-miR-581]	2.53	82.2	-3.72
AGGUGUUAUCCUAUCCAUUUGC [hsa-miR-4694-5p]	-15.4	25.3	24.2
UUCGCGGGCGAAGGCAAAGUC [hsa-miR-3124-5p]	18.7	32.5	3.56
UAGGUAGUUUCCUGUUGUUGGG [hsa-miR-196b-5p]	54.4	41.4	-8.68
AAGCCCUGUCUCCUCCCAUCU [hsa-miR-6779-3p]	-41.9	68.1	9.83
AAAAGUAACUGCGGUUUUUGCCU [hsa-miR-548w]	56.1	77.2	-28.5
AAUCCUUGGAACCUAGGUGUGAGU [hsa-miR-362-5p]	-6.28	36.6	-1.23
GCUAUUUCACGACACCAGGGUU [hsa-miR-138-2-3p]	-22.8	43.1	4.26
GCUCAGGGAUGAUAACUGUGCUGAGA [hsa-miR-4518]	31.9	55.6	-10.2
AAUGUGGAAGUGGUCUGAGGCAU [hsa-miR-4657]	6.84	30.7	10.1
GUGGUUAUCCCUGUCCUGUUCG [hsa-miR-487b-5p]	17.4	37.4	-1.37
AUGCGAGGAUGCUGACAGUG [hsa-miR-4737]	-33.6	28.3	35.7

Sequence	5+ nucleoli phenotype percent effect [1] [%]	percent viability [2] [%]	one-nucleolus phenotype percent effect [3] [%]
UGCAAAAGUAAUUGCAGUUUUUG [hsa-miR-548g-5p]	3.25	73.1	-17
UACAGUAUAGAUGAUGUACU [hsa-miR-144-3p]	-8.45	119	-2.3
AUCCGCGCUCUGACUCUCUGCC [hsa-miR-937-3p]	8.26	78.1	-5.97
UGUAAACAUCCUUGACUGGAAG [hsa-miR-30e-5p]	36.3	61.8	0.878
UCUCACACAGAAAUCGCACCCGU [hsa-miR-342-3p]	-4.22	78.4	-2.78
AGGGGACCAAAGAGAUAUAUAG [hsa-miR-3144-5p]	33.4	38.1	-9.41
CCGGGGCAGAUUGGUGUAGGGUG [hsa-miR-5090]	24.7	82	-10.2
UGGGUAGAGAAGGAGCUCAGAGGA [hsa-miR-3132]	62.9	21.4	1.88
GCUUGUCGCUGCGGUGUUGCU [hsa-miR-3655]	-7.75	65.9	29.1
GGUGAGGCUAGCUGGUG [hsa-miR-4316]	-8.12	41.7	13.5
UUGCUCCUGACUCUGUGCCCACA [hsa-miR-6772-3p]	-4.99	32.5	1.77
AGAGGUAGUAGGUUGCAUAGUU [hsa-let-7d-5p]	30.8	28.7	-18.5
CCUCCCUGCCCGCCUCUCUGCAG [hsa-miR-7113-3p]	57.3	70.5	-20.6
UGCAAGACGGAUACUGUCAUCU [hsa-miR-4696]	-15.7	92.5	-7.62
UGGGGCUAGUGAUGCAGGACG [hsa-miR-4489]	-9.01	18.6	25.8
UAAAACUUUAAGUGUGCCUAGG [hsa-miR-5582-3p]	7.07	72.9	-11.3
AAAAGUAUUUGCGGGUUUUGUC [hsa-miR-548l]	30	127	-20.8
GUGUCUUUUGCUCUGCAGUCA [hsa-miR-511]	-3.71	55.3	-6.61
ACGGAAUAUGUAUACGGAAUAUA [hsa-miR-3669]	30.9	95.9	-9.77
